The DeepSol protein solubility set

Experiment: soluble on expression in E. coli; label from the status in PepcDB or PDB records
For “MGEQPIFTTRAHVFQIDPSTKKNWVPASKQAVTVSYFYDVTRNSYRIISVDGAKVIINSTITPNMTFTKTSQKFGQWADSRANTVFGLGFSSELQLTKFAEKFQEVREAAR”, the “soluble on expression in E. coli” value was “soluble”.
For “MSLQIVPYLIFNGNCREAFSCYHQHLGGTLEAMLPFGDSPECGDIPADWKDKIMHARLVVGSFALMASDNHPAYPYEGIKGCSISLNVDSKAEAERLFNALAEGGSVQMPLGPTFWAASFGMFTDRFGVAWMVNCEQDREGGSHHHHHH”, the “soluble on expression in E. coli” value was “soluble”.
For “MWQAIAKQISEVTQQPFSISERESVNGGEINDCYMISNGSQRYFVKINEKAELPIFETEIESLTQLDKSDHIFVPSPIHIGTTKEHSFLVLNYLPTKSMDKDAFYELGVSLANHHLWGDQLEYGFDCDNYLGNVLQVNTWHRRWDCFFAEQRIGWQLQLLKEKGMVLGDIDTLVKNSKLILHNHQPKPALLHGDLWHGNIALSVKGPISYDPASYWGDAECDLAMVELFGGIQDSFFEGYESISSISEGFETRQHLYSLYHVLNHCNMFGGEYMFHAQQLIDKLNLNELEHHHHHH”, the “soluble on expression in E. coli” value was “not soluble”.
In the case of “GPGSMVLIECKRLPKDEYSKDYDVFLVSMPGSTNIGEATDALQKMRNTRVRIKWMCAAAKQLAKDFCSDEQKHHLLGAVEDAERYMAIERAENRQLCSQEDLDAHIAAFKGSAMILFPAECSGTDAVKRLALVLDDENTTDLERSKAHRLLSIIDDGAATEDILQGPAVMWWSGKPLDRNADFTKYVGKNEKTKITMKLAAKDAPPPPREPAVDAKTQSEMMAFYFKKQEEMKKLIEDEDLTYGNSAWADPRGLRSQLHGFDGVKYKPG”, the “soluble on expression in E. coli” value is reported as “soluble”.
With “AAQAEREELAAGRMPGGGPQGAPAAAGGGGVSHRAGSRDCLPPAACFRRRRLARRPGYMRSSTGPGIGFLSPAVGTLFRFPGGVSGEESHHSESRARQCGLDSRGLLVRSPVSKSAAAPTVTSVRGTSAHFGIQLRGGTRLPDRLSWPCGPGSAGWQQEFAAMDSSETLDASWEAACSDGARRVRAAGSLPSAELSSNSCSPGCGPEVPPTPPGSHSAFTSSFSFIRLSLGSAGERGEAEGCPPSREAESHCQSPQEMGAKAASLDGPHEDPRCLSQPFSLLATRVSADLAQAARNSSRPERDMHSLPDMDPGSSSSLDPSLAGCGGDGSSGSGDAHSWDTLLRKWEPVLRDCLLRNRRQMEVISLRLKLQKLQEDAVENDDYDKAETLQQRLEDLEQEKISLHFQLPSRQPALSSFLGHLAAQVQAALRRGATQQASGDDTHTPLRMEPRLLEPTAQDSLHVSITRRDWLLQEKQQLQKEIEALQARMFVLEAKDQQLRREIEEQEQQLQWQGCDLTPLVGQLSLGQLQEVSKALQDTLASAGQIPFHAEPPETIRSLQERIKSLNLSLKEITTKVCMSEKFCSTLRKKVNDIETQLPALLEAKMHAISGNHFWTAKDLTEEIRSLTSEREGLEGLLSKLLVLSSRNVKKLGSVKEDYNRLRREVEHQETAYETSVKENTMKYMETLKNKLCSCKCPLLGKVWEADLEACRLLIQSLQLQEARGSLSVEDERQMDDLEGAAPPIPPRLHSEDKRKTPLKESYILSAELGEKCEDIGKKLLYLEDQLHTAIHSHDEDLIQSLRRELQMVKETLQAMILQLQPAKEAGEREAAASCMTAGVHEAQA” the “soluble on expression in E. coli” value was “soluble”.
For “MNFIYPAVIAAVQEGEKAWGTTHPNPPVGAVVLSSNGSIVGRGHTQPPGGSHAEIMALRQAGENTKGGTLVVTLEPCNHWGRTGPCSHAISESGIEHVVYLMQDTGSLEKGGAEYLRRQGLKVTFLGLSVAALIPWQASKDRGWPYVVGKTAHTLDGFVAAEDHSSKWITGSASRDYANRQRRHFDAIIVGTGTVKADNPALTARKDDGTLLPHQPLKVVIGTSKISEGTQLARSGFVQFSTIEEALVQLWDRGVRYVLVEGGPHLLHGFLTSGNLDQLHSYSAPMLLTRGVSLLQEEEKKSAESANTTIASALRGSPQSISMLGDDILQVINI”, the “soluble on expression in E. coli” value was “not soluble”.
With “ERGKFAAVFNDITERRLMEDELRRQEQSHRLVLDNIPDIIARFDRELRHLYVSAAITRVTGFPPEHFIGRTNREIGMPDELVDRWDAAINEVFSSGREQRLEFTYQSPRGLRHFETTLIPERGADDSSAAVLVVNHD” the “soluble on expression in E. coli” value was “not soluble”.
With “MLLSLYIPPGRPIPDVLNLLRQEYSIAQNIKLKRTRDAVTSAIQSAIDRLTQIPKVPDNGLVIFCGENFETEESKCFVFSPPEKVTIFFYRTDKYFHTEFLEDMIEENDVFGLIIVERDYATIGILKGTRIEVLDEFEGFVPGKHMMGGQSQRRIDRIIEEMYANFLKEVGEKANSYLLPYLESGKLKGILLGGPGYAKKDFYDGDYLDYRLKKLVLLPLIDIPDQGDAGLKELVMKAQDILKNQKYVQVQNLLEELKYHIAKDDGLVVYGIEEIRKALHMGAVDSLVIYDEPNSELEKLSQEAENYGTKVYVVGDELPDAEWVKKTFGGAIGKLRYKIY” the “soluble on expression in E. coli” value was “soluble”.
With “MGSDKIHHHHHHAREAEFKKIKESWTLQADGTQVYRQSKVLTLYTHTAMNRTYGESFITYDPRYQTLQIHESYTRQKDGNIVKTPANALVEVLPSAAANAPAFNALREMVVVHTGLELGATIYLDYSITTKPGYLPGIQICRLLEHSSPVKEYEISITVPRGQHLEYALNNHKEKASVTESEGMKQVSWTLKNLPALSREPQVSVIGGDLPLLTATTEEKPLSFLTSQWQPEGDAGIRALAGKLTAGAKDDKEKVTAIRDYVIDNLYYSSLPLAESGYRIRPAAEVIRSAYGTEAEKANLMAALLKAAGLKAGIGAVCAPSENTASLGVGSIRELFVWTDAGGSQQALSLKGKTPSAVSWQKDYAYVASLTQPFELNLPPVTLRKDYALQPDAANAKDGYLVFTLPVERGSLAGSQYVRFNSKRTSNLLLPGLADESFTYTVDTPAGMEPVTRPMEKKMDNAVGTLTISIRPEGAKTRVIRSLKLKKQMIRPADYAAFRQLMTEYGAVDGLTLVYRKPLP” the “soluble on expression in E. coli” value was “not soluble”.
For “MAHHHHHHMSSSDLIKEDDYVFISGRGLNKIVQIKKDVTVRLGRSGAALATTLIGIRYGGVCHLDHARKKFVESDEYPDLDITEVGDGEEVKDNRDLVDDNTNQQLSNDEVAAIRRDKGLDELLQALVEKSASYRTKTNFAQEKYLKKKQKKYGTLFKVERVTVDNLAELHVPTINPSDNTSEDARCLRLRADTVALILHHSDVHHNSRVILYEKTNGVLPASLLTRMSDEGRIFQILDKNAQPSPTTAVKVLKLPLVKERWKAVPRNRGFLEGLEEPDKDSARDTAEAAEKNAAGAAAGKGLQRQDICASSTQWVKGLEARQLLLESSADSLVICDDEAPQRAVADLLPFLAFGGHIVVYSPFLEDLTGIFLALRDDCVNLQISETWYRHHQVLPKRTHPTVNMSTAAGYLLTAIKVCRNPAAPRLTAAVTAPALSATTHAGHKRSATEELNGMASKKSATREASDEGNAN”, the “soluble on expression in E. coli” value was “not soluble”.
In the case of “MGSDKIHHHHHHMTDLEHQVFTQVRAIIANEEQVIGRRGILIPLKKAIIADGDIRNVIDIVSSDPALAAHLLWRSNSAANASVSSKNRSLKDALVRLGQVNIYRYAFTFYLKERLDELPQPYKKLVYGYWALTESIATDAVDSLHHMEGVNINPDEVQTLALFSVFGEIIALTAFAYLNAESEQSFPLSIIKSLIDNQKQTLTLEAFESLGLDEELREEFMIAHNLRQTRNPDSPGLVLRRVLSMRNQLLNPL”, the “soluble on expression in E. coli” value is reported as “not soluble”.
For “MLTSGETVNVVLDFTKCTSTDDQKKPGMMRGDLRISAFLIRPDNSISFSDEHFTITTMDKEPIYQFLRYSLKPDETASFTMTTLSMPEKAHKGEVIAYNCKFATALEHHHHHH”, the “soluble on expression in E. coli” value was “not soluble”.
With “SYLPAENHEYVAAKEGVMNIQTNQVMKVIFQLPDYLLNRYTQGVNVSAKMIFDAFPERSFDLTFQEIDTEADPKTGSYKVTMVMERPPELGILPGMSGNAYLVSQNSGATKIPDSALFEENGKTYVWRVDDQGVVAKADITMNDNGQILQGLADGDQIIISGINVIEPGIKVRAWVKERGL” the “soluble on expression in E. coli” value was “not soluble”.
With “MTRPNDEGDVSSLAYKYETIADSLRQDIKSGKYTPGELMPDQNKLAETFDTTRITIHKAIQLLIIEGMVYSKRGAGTFVRKDFGLTERRQETLVDKPLGTTQTNAGKKVTSKVLELQARLPTKREAEQLLIDEMDPVYVIRRTRYVDGKVWAYEHTIMPTSIVTLTKQVLEGSVYGYLEQHSGKKIAGSHRIISAARVTADDVAAMGATLNDPVLVINQISYMDDGQPFEVSESHFPYETSTVVADVQIH” the “soluble on expression in E. coli” value was “not soluble”.
With “MKSVFVESTIFEKYRDEYLSDEEYRLFQAELMLNPKLGDVIQGTGGLRKIRVASKGKGKRGGSRIIYYFLDEKRRFYLLTIYGKNEMSDLNANQRKQLMAFMEAWRNEQS” the “soluble on expression in E. coli” value was “not soluble”.
